According to patent US20210221894A1 (DRAGONFLY THERAPEUTICS, published 2021):

Experiments:
[1] = molecular target: T1, recombinant human DLL3 (ELISA coat) (human, UniProt Q9NYJ7 27-492); test: ELISA, plate coated with recombinant human DLL3 0.5 µg/ml, anti-mouse IgG-HRP
T1 sequence: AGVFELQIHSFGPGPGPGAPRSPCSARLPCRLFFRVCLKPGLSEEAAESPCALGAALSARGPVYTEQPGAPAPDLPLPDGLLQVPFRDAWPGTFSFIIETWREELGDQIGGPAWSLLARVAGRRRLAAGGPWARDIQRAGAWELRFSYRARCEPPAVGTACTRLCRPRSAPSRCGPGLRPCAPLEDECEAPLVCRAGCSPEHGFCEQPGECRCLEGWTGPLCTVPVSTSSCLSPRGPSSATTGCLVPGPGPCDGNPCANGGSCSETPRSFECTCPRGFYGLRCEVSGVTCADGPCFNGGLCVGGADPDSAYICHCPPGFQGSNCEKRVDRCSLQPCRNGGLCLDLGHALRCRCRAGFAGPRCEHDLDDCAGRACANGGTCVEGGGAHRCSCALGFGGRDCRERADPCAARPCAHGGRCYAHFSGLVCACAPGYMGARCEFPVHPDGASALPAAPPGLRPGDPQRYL
How it was run: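 Antibody binding measured on plates coated with recombinant human DLL3 at 0.5 μg/ml, detected with anti-mouse IgG-HRP and TMB substrate. Signals normalized to the matching positive control antibody; EC₅₀ calculated from binding curves.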

[2] = molecular target: T2, extracellular domain (ECD) of human DLL3 (AdipoGen Life Sciences) (human, UniProt Q9NYJ7 27-492); test: SPR (Biacore 8K), 37 C, antibody captured on anti-mouse Fc, DLL3 ECD injected, 1:1 fit
T2 construct: Bought and further purified by size exclusion chromatography; also called hDLL3 ECD; DLL3 ECD
T2 sequence: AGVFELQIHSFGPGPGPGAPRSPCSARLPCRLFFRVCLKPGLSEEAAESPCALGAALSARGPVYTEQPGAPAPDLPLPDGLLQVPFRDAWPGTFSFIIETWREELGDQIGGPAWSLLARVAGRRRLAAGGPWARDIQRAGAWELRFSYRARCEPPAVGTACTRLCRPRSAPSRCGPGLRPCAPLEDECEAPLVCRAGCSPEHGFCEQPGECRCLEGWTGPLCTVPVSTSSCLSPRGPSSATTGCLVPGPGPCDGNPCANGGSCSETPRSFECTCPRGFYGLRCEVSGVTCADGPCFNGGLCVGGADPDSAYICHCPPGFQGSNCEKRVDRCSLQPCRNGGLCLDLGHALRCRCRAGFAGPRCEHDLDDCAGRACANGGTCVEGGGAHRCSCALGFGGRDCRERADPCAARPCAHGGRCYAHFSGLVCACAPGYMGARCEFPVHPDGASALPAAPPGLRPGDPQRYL
Excerpt: (§1) The binding kinetics of different anti-DLL3 antibodies to recombinant proteins of different domains of human DLL3 were studied by surface plasmon resonance (SPR) using a Biacore™ 8K instrument. These anti-DLL3 antibodies were produced from mouse hybridomas, and each included a heavy chain variable region and light chain variable region described herein. Briefly, antibodies recognizing human IgG Fc and antibodies recognizing mouse IgG Fc were immobilized on different channels of a Biacore™ 8K chip to allow simultaneous analysis of human and murine anti-DLL3 antibodies. Murine anti-DLL3 antibodies were captured on the anti-mouse Fc channel of the Biacore chip. The human anti-DLL3 antibody from Stemcentrx (San Francisco, Calif.) was used as a control and was captured onto anti-human Fc channel of the Biacore™ chip. Different concentrations of DLL3 ECD, DLL3 N-terminal domain, EGF2-6, EGF3-6, EGF4-6, or EGF5-6 domains of DLL3 were injected. Experiments were performed at 37° C. Biacore™ 8K evaluation software was used for all data analysis. To obtain kinetic rate constants double-referenced data were fit to a 1:1 interaction model using Biacore™ 8K Evaluation software (GE Healthcare, Marlborough, Mass.). The equilibrium binding constant KD was determined by the ratio of binding rate constants kd/kₐ.
Table 36 lists the calculated binding kinetics (KD). […] Stemcentrx anti-DLL3 antibody was used as a control.

[3] = molecular target: T3, human DLL3-His (human, UniProt Q9NYJ7 27-492); test: SPR (Biacore 8K), 37 C, m5E7 captured on anti-mouse Fc, DLL3-His 0.411-300 nM injected, 1:1 fit
T3 construct: also called hDLL3
T3 sequence: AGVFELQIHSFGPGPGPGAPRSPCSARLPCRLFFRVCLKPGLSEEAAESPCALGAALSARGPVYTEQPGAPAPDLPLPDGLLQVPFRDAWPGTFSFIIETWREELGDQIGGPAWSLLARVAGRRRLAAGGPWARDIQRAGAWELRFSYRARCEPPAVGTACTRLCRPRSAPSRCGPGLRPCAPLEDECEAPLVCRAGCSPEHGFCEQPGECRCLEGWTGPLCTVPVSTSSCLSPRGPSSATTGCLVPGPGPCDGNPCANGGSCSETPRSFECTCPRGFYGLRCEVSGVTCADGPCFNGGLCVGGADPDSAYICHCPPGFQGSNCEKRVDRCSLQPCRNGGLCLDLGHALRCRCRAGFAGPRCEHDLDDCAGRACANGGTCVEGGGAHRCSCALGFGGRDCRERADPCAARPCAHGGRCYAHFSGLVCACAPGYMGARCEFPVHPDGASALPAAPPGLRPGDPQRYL
Excerpt: The kinetics of binding of different humanized variants and parental murine 5E7 antibody to human DLL3-His was studied by Surface Plasmon Resonance using a Biacore 8K instrument. Briefly, anti-hFc and anti-mFc IgG proteins were covalently immobilized onto different channels of CMS chip to allow simultaneous analysis of human and murine antibodies. m5E7 was captured on the anti-mouse Fc channel and humanized variants were captured on the anti-human Fc channel at a desired capture level of […] in HBS-EP+ buffer supplemented with 0.1% BSA. Three buffer blanks and human DLL3-His (analyte) at concentrations 0.411-300 nM (in three fold dilutions) were injected over the surface with captured murine or humanized 5E7 for 300 second association time and let dissociate for 600 second at a flow rate of 30 μL/min. The surfaces were subjected to regeneration with three 20-second pulses of 10 mM glycine pH 1.70 at a flow rate of 100 μL/min between every concentration of analyte. The experiment was conducted at 37° C. Data were double referenced and a 1:1 fit model was applied to the sensorgrams in the Biacore Insight Evaluation software.
The kinetic parameters of human DLL3-His binding to murine and humanized variants of 5E7 antibody variants were calculated and shown in Table 39.

[4] = molecular target: T4, recombinant human DLL1 (human, UniProt O00548 18-540, limits assumed); test: ELISA, plate-bound recombinant human DLL1 (1 µg/mL), anti-mouse IgG-HRP/TMB, % of positive control max
T4 sequence (looked up): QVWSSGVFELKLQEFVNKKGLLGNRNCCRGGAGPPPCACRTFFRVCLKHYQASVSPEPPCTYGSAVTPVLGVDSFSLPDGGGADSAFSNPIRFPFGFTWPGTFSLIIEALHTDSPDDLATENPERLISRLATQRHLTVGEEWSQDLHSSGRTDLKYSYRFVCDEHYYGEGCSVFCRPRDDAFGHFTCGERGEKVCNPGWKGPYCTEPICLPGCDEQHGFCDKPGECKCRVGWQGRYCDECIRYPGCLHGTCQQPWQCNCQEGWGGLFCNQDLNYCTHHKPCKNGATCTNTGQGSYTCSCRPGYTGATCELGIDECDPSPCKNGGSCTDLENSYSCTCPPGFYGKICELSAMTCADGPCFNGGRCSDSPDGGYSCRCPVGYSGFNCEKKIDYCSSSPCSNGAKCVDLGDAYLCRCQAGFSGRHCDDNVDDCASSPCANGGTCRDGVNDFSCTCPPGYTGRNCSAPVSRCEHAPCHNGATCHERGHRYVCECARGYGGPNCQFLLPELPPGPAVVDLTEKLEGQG
How it was run: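 Binding read by anti-mouse IgG-HRP with TMB substrate against wells coated with recombinant human DLL1 (1 μg/ml) or DLL4 (0.5 μg/ml) to test cross-reactivity of anti-DLL3 antibodies. Signals normalized to the corresponding positive control antibody.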

[5] = molecular target: T2, extracellular domain (ECD) of human …; test: SPR (Biacore 8K), 37 C, antibody captured on anti-mouse Fc; same values as in Table 36; 37 C; hDLL3 ECD construct
Excerpt: as §1
Table 36 lists the calculated binding kinetics (KD). […]

EC50 [1]: 0.07 nM | Kd [2]: 0.203 nM | koff [2]: 6.47e-05 s⁻¹ | kon [2]: 319000 M⁻¹ s⁻¹ | Kd [3]: 1.22 nM | koff [3]: 0.00145 s⁻¹ | kon [3]: 1.19e+06 M⁻¹ s⁻¹ | binding result [4]: no binding | kon [5]: 319000 M⁻¹ s⁻¹
B1: murine anti-DLL3 antibody clone 5E7 (antibody, V domains shown)
VH: EVQLQQSGAELVRPGASVKLSCTASGFNIKDDYIHWVKQWPEQGLEWIGWIDSENGDTEYASKFQGKATMTADTSSNTAYLQLSGLTSEDTAVYYCTTSSYYSYDLFVYWGQGTLVTVSA
VL: DVLMTQTPLTLSVPIGQPASISCKSSQSLLHSNGKTYLNWLLQRPGQSPKLLIYLVSKLESGVPDRFSGSGSGTDFTLKISRVEAEDLGVYYCLQTTHLYTFGGGTKLEIK
notes: Murine antibody produced from a mouse hybridoma, captured on anti-mouse Fc in SPR; also called m5E7; murine 5E7
